Target: Cy5 N-terminal-labeled WWP2 (human) (UniProt O00308)
Test: MST; 10 nM N-terminal Cy5-labeled WWP2, NDP52 (up to 48 uM) or OPTN (up to 60 uM) in two-fold serial dilution; 25 mM Hepes pH 7.8, 250 mM NaCl, 1 mM TCEP, 0.5 mg/ml BSA, 0.05% Tween-20; room temperature; apparent KD, quadratic model

B1: NDP52 (natural protein)
chain: MEETIKDPPTSAVLLDHCHFSQVIFNSVEKFYIPGGDVTCHYTFTQHFIPRRKDWIGIFRVGWKTTREYYTFMWVTLPIDLNNKSAKQQEVQFKAYYLPKDDEYYQFCYVDEDGVVRGASIPFQFRPENEEDILVVTTQGEVEEIEQHNKELCKENQELKDSCISLQKQNSDMQAELQKKQEELETLQSINKKLELKVKEQKDYWETELLQLKEQNQKMSSENEKMGIRVDQLQAQLSTQEKEMEKLVQGDQDKTEQLEQLKKENDHLFLSLTEQRKDQKKLEQTVEQMKQNETTAMKKQQELMDENFDLSKRLSENEIICNALQRQKERLEGENDLLKRENSRLLSYMGLDFNSLPYQVPTSDEGGARQNPGLAYGNPYSGIQESSSPSPLSIKKCPICKADDICDHTLEQQQMQPLCFNCPICDKIFPATEKQIFEDHVFCHSL
B1 was tested, and the Kd was 19 µM.

— PMC9034101
